From the nanobody polyreactivity screen of Harvey et al. (2022)

Test: yeast display, Sf9 membrane polyspecificity reagent, FACS + sequencing; frameworks hold sequencing errors
Summary of the method: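 In a synthetic yeast display library (Saccharomyces cerevisiae BJ5465), nanobody expression was induced with galactose for 36–48 hours. FACS gates were set low and high (top ~1%) using anti-HA fluorescence for expression and streptavidin fluorescence for binding of the Sf9 membrane reagent. Each polyreactivity label is drawn from the gate of origin.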

Row | Sequence | polyreactivity (PSR sort gate)
1 | QVQLVDSGGGLVQAGGSLRLSCAASGLIFYHNTMGWSRQAPGKEREFVASISQSGGSTYYADSVKGRFTISRDNAKNTVYLQMNSLKPEDTAVYYCAKKVRRWRTMDYWGQGTQVTVSS | high polyreactivity
2 | QVQLVESGGGLVQAGGSLRLSCAASGSTFYGYAMGWYRQAPGKERELVASITTRGGRTNYADSVKGRFTISRDNAKNTVYLQMNSLKPEDTAVYYCATYSYVTRYARWGEYDYWGQGTQVTVSS | high polyreactivity
3 | QVQLVESGGGLVQAGGSLRLSCDASGRIFQYNAMGWSRQAPGKLRELVAAITVGGSTNYADSVTGRFTISRDNAKNTVYLQKNSLKPEDTAVSYCNKAWSSSWQVTYGICGQGTQVTVSS | high polyreactivity
4 | QVQLVESGGGLVQAGGSLRLSCAASGSTFTPYAMGWYRQAPGKERELVASITIGGSTYADSVKGRFTISRDNAKNTVYLQMNSLKPEDTAVYSCNADWNWYPFLYSRMDYWGQGTQVTVSS | low polyreactivity
5 | QVQLVESGGGLVQAGGSLRLSCAASGRISVRNTMGWYRQAPGKERELVARISSTGGSTYYADSVKGRFTISRDNAKNTVYLQMNSLKPEDTAVYYCNAKYYTRYPYLGKGDYWGQGTQVTVSS | high polyreactivity
6 | QVQLGESGGGLVQAGGSLRLSCAASGSIFAFNTMGWYRQAPGKERELVAAITWGGGSTYYADSVKGRFTISRDNAKNTVYLQMNSLKPEDTAVYYCAARRSGRTRYYWGQGTQVTVSS | high polyreactivity
7 | QVQLVESGGGLVQAGGSLRLSCAASGLTFDYNAMGWYRQAPGKERELVAAITSGGSTKYADSVKGRFTISRDNAKNTVYLQMNSLKPEDTAVYYCAATAYVWYYLSYTYYYWGQGTQVTVSS | low polyreactivity
8 | QVQLVESGGGLVQAGGSLRLSCAASGSTFGYYAMGWYRQAPGKERELVATINRSGGSTYYADSVKGRFTISRDNAKYTVYLQMNSLKPEDTAVYYCNKLAYAGFRYIGSGYWGQGTQVTVSS | low polyreactivity
9 | QVQLVESGGGLVEAGGSLRLSCAASGRIFCYNAMGWYRQAPGKERELVAAIRSGGRTHYADSVKGRFTISRDNAKNTVTLQMNSLKPEDTAVYYCAARSVPYPYRRNPYDYWGQGTQVTVSS | high polyreactivity
10 | QVQLVESGAGLVQAGGSRRLSCAASGFTFKSYAMGLYRQAAGKERELVAAINRSGGSTYYADSVKGRFTISRDYAMNTVYLQMNSLSPDDTAVYYCAAVKPPDYYYWGQGTQVTVSS | high polyreactivity
11 | QVQLVESGGGLDQAGGSLRVSCAASGSILRYTMGWYRQAPGKERELVAAITRSGTSTYYADSVKGRFTISRDNAKNTVYLQMNSLKPEDTAVYYCAADDHYGRGFQYYYWGQGTQVTVSS | high polyreactivity
12 | QVQLVESGGGLVQAGGSLRLSCAASGRTFYFYAMGWYRQAPGKEWELVAAISWSGGRTYYADSVKGRFTISRDNAKNTVYLQMNSLNPEDTAVYYCAAEYRWSVGYWRYGLDDYWGQGTQVTVSS | high polyreactivity
13 | QVQLVESGGGLVQAGGSLRLSCAASGFTFYSYAMGWYRQAPGKERELVAAISRSGGSTRYADSVKGRFTISRDNAKNTVYLQMNSLKPEDTAVYYCAARSWYPYRYSSLYYWGQGTQVTVSS | high polyreactivity
14 | QVQLVESGGRLVQAGGSLRLSCAASGRIFRYNAMGWYRQAPGKEREFVARISVITGRTYYADSVKGRFTISRDIAKNTVYLQMNSLKPEDTAVYYCAADAGYNYRYLLRGDYWGQGTQVTVSS | high polyreactivity
15 | QVQLVESGGGLVQAGGSLRLSCAASGSIFRFYTMGWYRQAPGKERELVAAIRYRVTSTYYADSVKGRFTMSRDNAKNTVYLQMNSLTPEDTAVYYCAVRRAKRRSQGVSYASYAGNYNYWGLGTQVTVSS | high polyreactivity
16 | QVQLVESGGGLVQAGGSLRLSCAASGSTFPVYAMGWYRQAPGKERELVAAISLIGGSTYYADSVKGRFTISRDNAKNTVYLQMNSLNPEDTAVYYCNNAVISSPPAIDVLEMDYWGQGTQVTVSS | low polyreactivity

Row | Sequence | polyreactivity (PSR sort gate)
17 | QVQLVESGGGLVQAGGRLRLTCAASGSIFFYAMGWYRQAPGKERELVAGITTSGGSTYYADSVKGRFTISRDNAKNTVYLQMYSLKPEYTAVYYCAADGSRAGQEGNDYWGQGTQVTVSS | low polyreactivity
18 | QDQLVESGGGLDQAGGSLRLSCAASGRIFYPYTMGWYRQAPGKERELVAANTRSAASTHYADSVKGRFTISRDNAKNTVYLQMNSLKPEDTAVYYCAADDRGSSYGHFTVEYGYWGQGTQVTVSS | low polyreactivity
19 | QVQLVESGGGLVQARGSLRLSCAASGRTYAGYAMGWYRQAHGKERELVASITSGGRTYYADSVKGRFTISRDNAKNTVYLQMNSLKPEDTAVYYCNKVYKSYYWGGYDWGQGTQVTVSS | high polyreactivity
20 | QVHLVESGGGLVQAGCSLRLSCAASGSTIYRYAMGWYRQAPGKERELVASINGGDDTYYADSVKGRFTISRDNAKNNVYLQMTSLKPEDTAVYYCAAEVYGSWPFDTYYYWGQGTQVTVSS | high polyreactivity
21 | QVHLVESGGGLVQAGGSLRLSCAASGRTFDYNAMGWYRQATGKERELVAAIRFGGGSTYYADSVKGRFTISRDNAKNTVYLQMNSLKPEDTAVYYCNASPLWIGWEIVPVGSSHYDYWGQGTQVTVSS | low polyreactivity
22 | QVQLVESGGGLVQAGGSLRLSCAASGNTFGIYAMGWYRQAPGKERELVAAISSGTSTNYADSVKGRFTISRDNAKNTVYLQMNSLKPEDTAVYYCNADDQYQDVREDFWGQGTQVTVSS | low polyreactivity
23 | QVQLEVSGGGLDQAGGSLRLSCAASGFTFVYYVMGCYRQAPGKQWELVAAINAGGGSTYYADSVKGRFTISRDNAKNTVYLQMNSLKPEDTAVYYCNARVRVRLGRNWSSYYYWGQGTQVTVSS | high polyreactivity
24 | QVQLVESGGGLVQAGGSLRLSCAASGGIFKYNAMGWYRQSPGKERELVAAIDTSGGSTYYADSVKGRFTISRDNAKNTVYLQMNSLKPEDTAVYYCAAELGLAQYYYWGQGTQVTVSS | low polyreactivity
25 | QVQLVESGGGLVQAGGSLRLSCAASGSTSSTYSMGWYRQAPGKERELVATINWDGASTYYADSVKGRFTISRDNAKNTVYLQMNSLIPEDTAVYYCAAQSGAVHFLEDDYWGHGTQVTVSS | low polyreactivity
26 | QVKLVESGRGLVQAGGSLRLSCAASGFTFRYYGMGWYRQAPGKERELVASITASGVSTSYADSVKGRFTISRDNAKNTVYLQMNSLKPEDTAVYYCNAVVGAWSLFDYWGQGTQVTVSS | high polyreactivity
27 | QDQLVESGGGLVQAGCSLRLSCAASGRIFSWYTMGWYRPAPGKERELVAVITSGGTTKYADSVKGRITISRDNAKNTVYLQMNSLKPEDTAVYYCNVAGRDYAVRWGSFDYWGQGTQVTVSS | low polyreactivity
28 | QVQLVETGGALVQAGGSLRLSCAASGYTFYRYAMGWYRQATGKERELVAAISYSGGRTYYADSVKGRFTISCDIAKNTVYLQMNSLKPEDTAVYYCNARASYGHQGRLGYARLYYWGQGTQVTVSS | high polyreactivity
29 | QVQLVESGGGLVQAGGSLRLSCAASGSTFDYYAMGWYRPAPGKERELVAAISRRGGGTYYADSVKGRFTISRDNAKNTVYLQMNSLKPEDTAVYYCAKAVKYPTKALAVGYWGQGTQVTVSS | high polyreactivity
30 | QVQLVESGGGLVQAGGSLRLSCAASGFTFTYYAMGSYRQAPGKERELVAAITSRGGTTYYADSVKGRFTISRDNAKNTVYLQMNSLKPEDTAVYYCNARHSYWTGRRVTDDYDYWGQGTQVTVSS | high polyreactivity
31 | QVQLVESGGGIVQAGGSLRLSCAASGSTLGSNSMGWYRQAPGKERELVAAITWSGGTTYYADSVKGRFTISRDNAKNTVYLQMNSLKPEYTAVYYCATGQSVIYRYEYWGQGTQVTVSS | low polyreactivity
